Results on 4 molecules are retold here after patent US20230058519A1 (SHANGHAI CELL THERAPY GROUP, published 2023).

In test [1] the target is mesothelin (MSLN) expressed on cells (UniProt Q13421). In words: flow cytometry on 293T-MSLN-Full cells; unit taken from the axis 'Conc.(nM)'. For orientation: A flow cytometer gives signals particle by particle.
The target in the next test is T1, CD19 expressed on cells (UniProt P15391 20-556, limits assumed).
T1 construct: whole, on cells; also called CD19 over-expression cell line; CD19 over-expressing cells
T1 sequence (looked up): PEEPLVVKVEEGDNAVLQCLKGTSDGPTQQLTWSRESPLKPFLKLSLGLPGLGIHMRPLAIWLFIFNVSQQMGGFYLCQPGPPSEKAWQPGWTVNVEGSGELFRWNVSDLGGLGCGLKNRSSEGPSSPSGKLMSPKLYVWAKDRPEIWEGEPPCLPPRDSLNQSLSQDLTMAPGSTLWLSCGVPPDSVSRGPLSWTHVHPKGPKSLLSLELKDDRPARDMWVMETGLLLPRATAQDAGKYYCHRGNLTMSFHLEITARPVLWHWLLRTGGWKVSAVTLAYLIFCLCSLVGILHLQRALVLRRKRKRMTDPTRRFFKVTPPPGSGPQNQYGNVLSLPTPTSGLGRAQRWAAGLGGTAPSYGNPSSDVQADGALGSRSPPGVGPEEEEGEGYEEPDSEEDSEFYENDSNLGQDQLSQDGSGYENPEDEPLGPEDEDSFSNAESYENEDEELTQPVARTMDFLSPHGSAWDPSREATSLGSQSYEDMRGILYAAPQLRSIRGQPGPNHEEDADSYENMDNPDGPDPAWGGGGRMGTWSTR
Nature of the test: flow cytometry on CHO/K1-CD19 cells; unit taken from the axis 'Conc.(nM)'; the curve is still rising at the last point (MFI about 5000 at about 400 nM).

Another test has as its target EGFR His antigen (UniProt P00533 25-645). In words: SPR as in Example 2, EGFR His antigen.
The target of test [2] is T2, EGFR expressed on cells (UniProt P00533 25-1210, limits assumed).
T2 construct: whole, on cells; also called HEK293T-EGFR cell line; EGFR over-expressing cells
Nature of the test: flow cytometry on HEK293T-EGFR cells (cell line from paragraph 185); unit taken from the axis 'Concentration (nM)'.

In test [3] the target is T2, EGFR expressed on cells. In words: flow cytometry on 293T-EGFR cells; unit taken from the axis 'Conc.(nM)'.
The next test concerns the target T3, BCMA-His antigen (UniProt Q02223 1-54).
T3 construct: also called BMCA antigen
T3 sequence (looked up): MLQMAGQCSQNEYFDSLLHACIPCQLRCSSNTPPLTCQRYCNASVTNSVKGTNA
In words: SPR as in Example 2, BCMA-His antigen.

Another test deals with T4, BCMA expressed on cells (UniProt Q02223 1-184, limits assumed).
T4 construct: whole, on cells; also called CHOK1-BCMA cell line; BCMA over-expression cell line
T4 sequence (looked up): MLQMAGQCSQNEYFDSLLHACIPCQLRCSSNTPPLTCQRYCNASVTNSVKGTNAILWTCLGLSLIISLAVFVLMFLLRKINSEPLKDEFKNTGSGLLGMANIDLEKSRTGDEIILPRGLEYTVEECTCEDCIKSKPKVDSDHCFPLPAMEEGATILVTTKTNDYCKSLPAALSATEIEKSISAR
Nature of the test: flow cytometry on CHOK1-BCMA cells; unit taken from the axis 'Concentration (nM)'.

As usually defined, the EC50 is the concentration giving half of the maximal effect. Low readings indicate greater potency, high ones weaker potency. In general, Kd refers to the concentration at which binding is half-saturated. High values mean a looser complex, low ones a tighter complex. For orientation: koff means a measure of how fast the partners let go of each other. As usually defined, the kon is the rate constant with which the complex forms. Low readings indicate slow association, high ones fast association.

Chain of mesothelin (MSLN) expressed on cells (Q13421 other isoform, or with tags, fused parts or gaps limits assumed): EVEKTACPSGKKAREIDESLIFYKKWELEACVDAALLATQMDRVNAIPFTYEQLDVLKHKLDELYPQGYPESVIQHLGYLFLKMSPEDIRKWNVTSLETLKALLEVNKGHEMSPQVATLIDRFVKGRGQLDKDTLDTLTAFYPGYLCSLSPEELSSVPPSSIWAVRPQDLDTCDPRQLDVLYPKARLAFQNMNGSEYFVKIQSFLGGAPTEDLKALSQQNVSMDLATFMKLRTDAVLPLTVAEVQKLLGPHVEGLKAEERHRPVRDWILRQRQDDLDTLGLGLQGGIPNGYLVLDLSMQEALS

B1: TCP011-P (bispecific antibody)
chain: QLQLGASGGGLVQPGGSLRLSCALSGFTLRELDEFAIGWFRQAPGKEREGVSCISGTGGITHYADSVKGRFTISRDIAKTTVYLQMNSLNSEDTAVYYCAADERCTDRLIRPPTYWGQGTQVTVSSGGGGSGGGGSGGGGSDIQMTQTTSSLSASLGDRVTISCRASQDISKYLNWYQQKPDGTVKLLIYHTSRLHSGVPSRFSGSGSGTDYSLTISNLEQEDIATYFCQQGNTLPYTFGGGTKLEITKAGGGGSGGGGSGGGGSEVKLQESGPGLVAPSQSLSVTCTVSGVSLPDYGVSWIRQPPRKGLEWLGVIWGSETTYYNSALKSRLTIIKDNSKSQVFLKMNSLQTDDTAIYYCAKHYYYGGSYAMDYWGQGTSVTVSSGGGGSEQKLISEEDLGGGGSHHHHHH
notes: also called CD19-TCP; anti-M-ICAP VHH (M2339) - 3xGGGGS linker - anti-CD19 scFv (FMC063) - Myc and HIS
In the case of B1, the EC50 is 17.1 nM in test [1] and 40.9 nM in the test with CD19 expressed on cells.

B2: E454(VHH), hFc fusion (Fc fusion)
chain: QVQLVESGGGLVQPGGSLNLSCAASGFDFSSVTMSWHRQSPGKERETVAVISNIGNRNVGSSVRGRFTISRDNKKQTVHLQMDNLKPEDTGIYRCKAWGLDLWGPGTQVTVSS
notes: also called anti-EGFR VHH (E454(VHH)); not shown: human Fc
Turning to B2, in the test with EGFR His antigen, the affinity, expressed as Kd, was 1.27 nM; the koff came out at 2.48e-05 s⁻¹; the kon came out at 19500 M⁻¹ s⁻¹. This molecule registered an EC50 with EGFR expressed on cells [2] of 6.51 nM.

B3: TCP021-P (bispecific antibody)
chain: QLQLGASGGGLVQPGGSLRLSCALSGFTLRELDEFAIGWFRQAPGKEREGVSCISGTGGITHYADSVKGRFTISRDIAKTTVYLQMNSLNSEDTAVYYCAADERCTDRLIRPPTYWGQGTQVTVSSGGGGSGGGGSGGGGSQVQLVESGGGLVQPGGSLNLSCAASGFDFSSVTMSWHRQSPGKERETVAVISNIGNRNVGSSVRGRFTISRDNKKQTVHLQMDNLKPEDTGIYRCKAWGLDLWGPGTQVTVSSGGGGSEQKLISEEDLGGGGSHHHHHH
notes: also called EGFR-TCP; anti-M-ICAP VHH (M2339) - 3xGGGGS linker - anti-EGFR VHH (E454(VHH)) - Myc and HIS
On to B3, for which the EC50 in test [1] was found to be 35.6 nM; in the test with EGFR expressed on cells [3], 28.6 nM.

B4: B029(VHH), hFc fusion (Fc fusion)
chain: QVQLVESGGGLVQPGGSLRLSCAASGSITSIYAIGWYRQAPGKLRELVAAITTSGNTFYRDSVKGRFTISRDNAKNTVSLQMNSLKSEDTAVYDCNGAPWGDHAPLVVSWDQGTQVTVSS
notes: not shown: human Fc
As to B4, in the test with BCMA-His antigen, the affinity, expressed as Kd, was 0.125 nM; the koff is 0.000365 s⁻¹; the kon was 2.92e+06 M⁻¹ s⁻¹. In addition, it took 1.68 nM to reach a half-maximal effect in the test with BCMA expressed on cells (EC50).
